# Reference: PMC8634136 (The EMBO Journal, 2021)
# B1: TIMELESS‐TIPIN heterodimer (complex, human)
# chain 1: MDLHMMNCELLATCSALGYLEGDTYHKEPDCLESVKDLIRYLRHEDETRDVRQQLGAAQILQSDLLPILTQHHQDKPLFDAVIRLMVNLTQPALLCFGNLPKEPSFRHHFLQVLTYLQAYKEAFASEKAFGVLSETLYELLQLGWEERQEEDNLLIERILLLVRNILHVPADLDQEKKIDDDASAHDQLLWAIHLSGLDDLLLFLASSSAEEQWSLHVLEIVSLMFRDQNPEQLAGVGQGRLAQERSADFAELEVLRQREMAEKKTRALQRGNRHSRFGGSYIVQGLKSIGERDLIFHKGLHNLRNYSSDLGKQPKKVPKRRQAARELSIQRRSALNVRLFLRDFCSEFLENCYNRLMGSVKDHLLREKAQQHDETYYMWALAFFMAFNRAASFRPGLVSETLSVRTFHFIEQNLTNYYEMMLTDRKEAASWARRMHLALKAYQELLATVNEMDISPDEAVRESSRIIKNNIFYVMEYRELFLALFRKFDERCQPRSFLRDLVETTHLFLKMLERFCRSRGNLVVQNKQKKRRKKKKKVLDQAIVSGNVPSSPEEVEAVWPALAEQLQCCAQNSELSMDSVVPFDAASEVPVEEQRAEAMVRIQDCLLAGQAPQALTLLRSAREVWPEGDVFGSQDISPEEEIQLLKQILSAPLPRQQGPEERGAEEEEEEEEEEEEELQVVQVSEKEFNFLDYLKRFACSTVVRAYVLLLRSYQQNSAHTNHCIVKMLHRLAHDLKMEALLFQLSVFCLFNRLLSDPAAGAYKELVTFAKYILGKFFALAAVNQKAFVELLFWKNTAVVREMTEGYGSLDDRSSSRRAPTWSPEEEAHLRELYLANKDVEGQDVVEAILAHLNTVPRTRKQIIHHLVQMGLADSVKDFQRKGTHIVLWTGDQELELQRLFEEFRDSDDVLGHIMKNITAKRSRARIVDKLLALGLVAERRELYKKRQKKLASSILPNGAESLKDFCQEDLEEEENLPEEDSEEEEEGGSEAEQVQGSLVLSNENLGQSLHQEGFSIPLLWLQNCLIRAADDREEDGCSQAVPLVPLTEENEEAMENEQFQQLLRKLGVRPPASGQETFWRIPAKLSPTQLRRAAASLSQPEEEQKLQPELQPKVPGEQGSDEEHCKEHRAQALRALLLAHKKKAGLASPEEEDAVGKEPLKAAPKKRQLLDSDEEQEEDEGRNRAPELGAPGIQKKKRYQIEDDEDD
# chain 2: MLEPQENGVIDLPDYEHVEDETFPPFPPPASPERQDGEGTEPDEESGNGAPVRVPPKRTVKRNIPKLDAQRLISERGLPALRHVFDKAKFKGKGHEAEDLKMLIRHMEHWAHRLFPKLQFEDFIDRVEYLGSKKEVQTCLKRIRLDLPILHEDFVSNNDEVAENNEHDVTSTELDPFLTNLSESEMFASELSRSLTEEQQQRIERNKQLALERRQAKLLSNSQTLGNDMLMNTPRAHTVEEVNTDEDQKEESNGLNEDILDNPCNDAIANTLNEEETLLDQSFKNVQQQLDATSRNITEAR
# notes: TIPIN, human; no cleavage is described in the purification; source: Hi5 insect cells (baculovirus), purified (Strep-Tactin XT, HiTrap Q, Superdex 200)
# Target: T1, human CDC45‐MCM‐GINS (CMG) helicase (human, UniProt P49736 1-904; P25205 1-808; P33991 1-863; P33992 1-734; Q14566 1-821; P33993 …)
# T1 construct: MCM2, human; MCM3, human; the construct lacks the 45 additional N-terminal amino acids of the longer isoform used in PDB 6XTX; MCM4, human; MCM5, human; MCM6, human; MCM7, human; CDC45, human; PSF1 (GINS subunit), human; PSF2 (GINS subunit), human; PSF3 (GINS subunit), human; SLD5 (GINS subunit), human; also called hsCMG; source: Hi5 insect cells co-infected with baculoviruses for MCM2-7, GINS …
# Test: co-sedimentation; native glycerol gradient without cross-linker (40 mM HEPES-NaOH pH 7.5, 150 mM NaOAc, 0.5 mM TCEP, 500 µM AMP-PNP, 3 mM Mg(OAc)2), 200,000 g, 4°C, 2 h; 100 nM CMG pre-incubated with fork DNA, 1.5-fold molar excess of the other proteins; fractions on silver-stained SDS-PAGE
# Details: both partners purified
binder,measurement,value
B1,binding result,binds
